The record followed here is publication PMC6441041.

The target of assay [1] is SH1 membrane-associated protein VP12 (haloarchaeal virus SH1). Kind of assay: cryo-EM structure; purified SH1 virions with and without spikes, data merged; icosahedral and block-based/localised reconstruction of the capsid, 3.8 Å; 20 mM Tris-HCl pH 7.2, 1 M NaCl, 10 mM MnCl2.
Assay [2] deals with SH1 penton protein VP9 (haloarchaeal virus SH1). The experiment in a line: cryo-EM structure; asymmetric (C1) localised reconstruction of the whole 5-fold vertex of spike-containing virions, overall 7.2 Å.

In turn, “SH1 membrane-associated protein VP12 (natural protein)” gave a stoichiometry N in assay [1] of 5.

With “SH1 penton protein VP9 (natural protein)”, the stoichiometry N in assay [2] was determined as 5.

The stoichiometry N is a count of units in the complex or per binding partner.
